# Reference: PMC6351631, “Biochemical and Proteomic Characterization of Recombinant Human α/β Hydrolase Domain 6” (Scientific Reports, 2019)
# T1: human alpha/beta hydrolase domain 6 (hABHD6) (Homo sapiens, UniProt Q9BV23, DEL38-40)
# T1 construct: gene ABHD6; hΔ29-3-ABHD6 (first 29 residues and Y38YW deleted, N-terminal His6) for MS; full-length hABHD6 in solubilized E. coli membrane fraction for IC50
# T1 sequence (Q9BV23 with tags, fused parts or gaps DEL38-40): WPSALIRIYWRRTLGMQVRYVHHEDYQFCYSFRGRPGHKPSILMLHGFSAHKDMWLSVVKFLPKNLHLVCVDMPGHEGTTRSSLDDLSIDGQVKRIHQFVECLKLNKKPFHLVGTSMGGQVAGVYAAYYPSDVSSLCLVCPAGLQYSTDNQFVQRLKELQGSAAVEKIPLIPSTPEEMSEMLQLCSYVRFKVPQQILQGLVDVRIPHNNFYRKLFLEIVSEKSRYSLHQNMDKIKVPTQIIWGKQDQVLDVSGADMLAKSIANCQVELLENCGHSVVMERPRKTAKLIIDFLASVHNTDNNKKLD
# B1: human alpha/beta hydrolase domain 6 (hABHD6) (Homo sapiens; DEL38-40) (protein)
# chain: T1 sequence (Q9BV23 with tags, fused parts or gaps DEL38-40)
# Key:
# [1] = target: T1, human alpha/beta hydrolase domain 6 (hABHD6); experiment: MALDI-TOF MS of tryptic digest showing +[…] Da adduct on purified enzyme; fluorometric AHMMCE inhibition assay; type: binding
# [2] = substrate: CCCCC/C=C\C/C=C\C/C=C\C/C=C\CCCC(=O)OC(CO)CO; experiment: HPLC quantification of arachidonic acid formed, Michaelis-Menten kinetics (Km); type: biochemical, Homo sapiens
Molecule,IC50 [1] [nM],Km [2] [µM],Vmax [2] [µM/min/mg]
CN(C)C(=O)n1nnc(Cc2ccc(-c3ccccc3)cc2)n1 [AM6701],0.9,,
B1,,139,0.35
